Data on two molecules can be found in US20190022241A1 (AbbVie / Abbott, published 2019).

The target of one assay is T1, human SEZ6L ECD-His (human, UniProt Q9BYH1 29-955).
T1 construct: whole entry named
T1 sequence: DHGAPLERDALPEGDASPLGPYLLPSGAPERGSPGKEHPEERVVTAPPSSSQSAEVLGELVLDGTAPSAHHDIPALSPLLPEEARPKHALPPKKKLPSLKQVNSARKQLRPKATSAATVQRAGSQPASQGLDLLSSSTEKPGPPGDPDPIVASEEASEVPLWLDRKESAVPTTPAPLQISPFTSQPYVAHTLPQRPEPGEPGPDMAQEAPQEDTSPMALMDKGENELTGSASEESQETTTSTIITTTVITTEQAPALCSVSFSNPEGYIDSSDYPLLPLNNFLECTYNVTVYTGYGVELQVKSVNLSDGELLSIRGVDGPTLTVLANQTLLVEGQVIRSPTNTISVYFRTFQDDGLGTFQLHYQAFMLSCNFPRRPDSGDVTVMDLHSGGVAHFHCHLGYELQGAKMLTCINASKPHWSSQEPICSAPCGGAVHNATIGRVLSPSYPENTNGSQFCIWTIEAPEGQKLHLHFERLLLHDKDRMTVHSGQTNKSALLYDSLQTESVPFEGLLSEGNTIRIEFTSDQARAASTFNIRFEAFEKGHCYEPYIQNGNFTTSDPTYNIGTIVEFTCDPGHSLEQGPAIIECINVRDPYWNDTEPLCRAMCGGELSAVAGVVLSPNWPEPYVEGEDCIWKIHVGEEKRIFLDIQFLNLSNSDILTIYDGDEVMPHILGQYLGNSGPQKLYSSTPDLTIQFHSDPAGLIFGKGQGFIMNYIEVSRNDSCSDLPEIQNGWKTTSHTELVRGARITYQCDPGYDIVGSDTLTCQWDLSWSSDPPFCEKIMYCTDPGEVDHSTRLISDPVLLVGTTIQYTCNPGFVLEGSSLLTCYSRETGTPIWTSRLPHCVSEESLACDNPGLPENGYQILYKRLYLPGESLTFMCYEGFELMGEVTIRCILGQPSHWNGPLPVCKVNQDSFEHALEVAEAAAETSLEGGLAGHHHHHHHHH
As to the kind of experiment: ELISA on plates coated with SEZ6L protein. On the technique in general: In an ELISA, binding on a coated surface is turned into a signal by an enzyme label.

Assay [1] addresses T2, extracellular domain of cynomolgus SEZ6 on yeast (cynomolgus, UniProt Q53EL9 23-925 (human entry)).
T2 construct: yeast display; the whole entry is named; also called cSEZ6; cynomolgus SEZ6 ECD
T2 chain: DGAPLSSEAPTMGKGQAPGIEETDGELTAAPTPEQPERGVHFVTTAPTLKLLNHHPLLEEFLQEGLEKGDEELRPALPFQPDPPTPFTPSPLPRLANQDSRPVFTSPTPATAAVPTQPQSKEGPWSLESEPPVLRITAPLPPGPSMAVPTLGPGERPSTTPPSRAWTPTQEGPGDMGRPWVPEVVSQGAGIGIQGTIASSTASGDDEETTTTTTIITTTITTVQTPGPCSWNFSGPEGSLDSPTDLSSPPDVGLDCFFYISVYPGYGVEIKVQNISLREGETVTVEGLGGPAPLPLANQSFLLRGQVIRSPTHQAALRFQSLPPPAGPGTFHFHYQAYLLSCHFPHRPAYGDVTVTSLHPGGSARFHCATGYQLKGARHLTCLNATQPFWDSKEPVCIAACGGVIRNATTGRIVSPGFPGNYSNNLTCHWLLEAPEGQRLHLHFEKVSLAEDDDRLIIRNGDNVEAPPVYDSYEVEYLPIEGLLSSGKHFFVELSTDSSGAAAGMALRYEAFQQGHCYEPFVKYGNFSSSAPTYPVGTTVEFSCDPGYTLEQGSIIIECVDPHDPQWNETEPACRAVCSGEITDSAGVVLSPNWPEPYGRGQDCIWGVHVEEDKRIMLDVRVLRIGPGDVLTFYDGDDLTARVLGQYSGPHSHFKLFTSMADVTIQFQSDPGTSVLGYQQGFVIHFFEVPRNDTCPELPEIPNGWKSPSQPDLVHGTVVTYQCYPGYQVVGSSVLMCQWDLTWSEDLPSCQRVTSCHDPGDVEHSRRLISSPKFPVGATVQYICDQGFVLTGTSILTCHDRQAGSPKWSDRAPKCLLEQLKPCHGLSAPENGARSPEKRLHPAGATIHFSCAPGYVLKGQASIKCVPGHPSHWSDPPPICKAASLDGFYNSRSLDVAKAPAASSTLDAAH
The assay can be described thus: flow cytometry, yeast displaying cynomolgus SEZ6 ECD, 5 ug/mL antibody. Background: Flow cytometry measures light scatter and fluorescence of single cells or particles in a stream.
Method: Briefly 1×10⁵ cells per well of Neuro2a, RIN-5mF, or yeast displaying cynomolgus SEZ6 cells were incubated for 30 minutes with 50 μL PBS (2% FCS) buffer with 5 μg/mL antibody. […] After incubating for 15 minutes cells were washed twice with the PBS buffer and re-suspended in the same with DAPI for flow cytometry analysis of Neuro2a and Rin-m5F or buffer without DAPI for flow cytometric analysis of yeast cells with cSEZ6.

Method for human SEZ6L ECD-His: To determine cross reactivity to family member proteins, SEZ6L and SEZ6L2, an ELISA-based assay was used. Plates were coated with SEZ6, SEZ6L, or SEZ6L2 proteins at 0.2 μg/mL in PBS overnight. After washing with PBS containing 0.05% (v/v) Tween 20 (PB ST), the wells were blocked with 2% (w/v) BSA in PBS (PB SA), 100 μL/well for 1 hour at room temperature. Antibody was then added at 1 μg/mL in 100 μL PBSA for 1 hour at room temperature. After washing with PBST, 100 μL/well HRP-labeled goat anti-mouse IgG diluted 1:2,000 in PBSA for 1 hour at room temperature. […] After developing, an equal volume of 2M H₂SO₄ was added to stop substrate development and analyzed by spectrophotometer at OD 450.

B1: SC17.17 (antibody, V domains shown)
VH: EVQLQQSGPEVMKPGASVKMSCKASGYTFTDYNMHWVKQNQGKSLEWIGEINPNIGGTGYNQKFKGKATLTVHKSSSTAYMELRSLTSEDSAVYYCARTYSYYSYEFAYWGQGTLVTVSA
VL: QIVLTQSPAIMSASPGEKVTMTCSASSSVSYMHWYQQKSGTSPKRWIYDTSKLPSGVPARFSGSGSGTSYSLTISSMEAEDAATYYCQQWSSTPPTFGAGTKLELK
notes: murine mAb
Consider B1, for which the binding result with human SEZ6L ECD-His is reported as “no binding (tested: 1 µg/mL)”; in assay [1] it was “binds”.

B2: SC17.34 (antibody, V domains shown)
VH: EVQLQQSGPELVKPGSSVKISCKASGYTFTDYNMDWVKQSHGKRLEWIGYIYPDNGGAGYNQKFKGKATLTVDKSSSTAYMELRSLTSEDSAVYYCSRSITTAWFAYWGQGTLVTVSA
VL: DIKMTQSPSSMYASLGERVTITCKASQDINSYLSWFQQKPGKSPKTLIYRANRLVDGVPSRFSGSGSGQDYSLTISSLEYEDMGIYYCLQYDEFPPTFGGGTKLEIK
notes: murine mAb
In the case of B2, the results for the binding result (with human SEZ6L ECD-His; in assay [1]) were “no binding (tested: 1 µg/mL)” and “binds”, respectively.
